In publication PMC10665462:

Biological target: BTN3A1 full intracellular domain (human)
Test: ITC; nanoITC; 300 μM BTN2A1 ID271 titrated into a mixture of 60 μM BTN3A1 BFI and 120 μM 4-M-HMBPP; independent fit (NanoAnalyze)

Substance “BTN2A1 intracellular domain (domain or fragment)” has a KD with 4-M-HMBPP of 190 µM, a N with 4-M-HMBPP of 0.08 and a dH with 4-M-HMBPP of -23.9 kcal/mol.
